Assay results published in PMC12551710, “The hook-like adaptor and cargo-binding (HAC) domain in the kinesin-2 tail enables adaptor assembly and cargo recognition” (Science Advances, 2025).

T1: KIF3B C-terminal region (BCT), residues 475 to 747 (Mus musculus, UniProt Q61771 475-747)
T1 construct: KIF3B, Mus musculus, NCBI NP_032470.3, C-terminal region residues 475 to 747 (BCT), without expression tags; residues 580 to 675 are resolved; also called KIF3B tail; source: E. coli BL21 (DE3), coexpressed with the KIF3A tail from pETDuet-1, purified within the reconstituted complex
T1 sequence (looked up): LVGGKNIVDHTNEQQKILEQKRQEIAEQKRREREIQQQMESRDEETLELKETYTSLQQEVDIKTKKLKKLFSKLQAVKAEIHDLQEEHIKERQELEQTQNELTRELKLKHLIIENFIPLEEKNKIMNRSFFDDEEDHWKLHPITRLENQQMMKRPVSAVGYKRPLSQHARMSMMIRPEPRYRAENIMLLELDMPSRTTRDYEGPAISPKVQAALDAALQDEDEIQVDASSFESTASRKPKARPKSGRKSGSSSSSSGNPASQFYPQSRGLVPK

B1: ARM domain of APC (APCARM), residues 338 to 1010 (domain or fragment, Mus musculus, UniProt Q61315 338-1010, looked up)
chain: SQDSCISMRQSGCLPLLIQLLHGNDKDSVLLGNSRGSKEARARASAALHNIIHSQPDDKRGRREIRVLHLLEQIRAYCETCWEWQEAHEQGMDQDKNPMPAPVEHQICPAVCVLMKLSFDEEHRHAMNELGGLQAIAELLQVDCEMYGLTNDHYSVTLRRYAGMALTNLTFGDVANKATLCSMKGCMRALVAQLKSESEDLQQVIASVLRNLSWRADVNSKKTLREVGSVKALMECALEVKKESTLKSVLSALWNLSAHCTENKADICAVDGALAFLVGTLTYRSQTNTLAIIESGGGILRNVSSLIATNEDHRQILRENNCLQTLLQHLKSHSLTIVSNACGTLWNLSARNPKDQEALWDMGAVSMLKNLIHSKHKMIAMGSAAALRNLMANRPAKYKDANIMSPGSSLPSLHVRKQKALEAELDAQHLSETFDNIDNLSPKASHRSKQRHKQNLYGDYAFDANRHDDSRSDNFNTGNMTVLSPYLNTTVLPSSSSSRGSLDSSRSEKDRSLERERGIGLSAYHPTTENAGTSSKRGLQITTTAAQIAKVMEEVSAIHTSQDDRSSASTTEFHCVADDRSAARRSSASHTHSNTYNFTKSENSNRTCSMPYAKVEYKRSSNDSLNSVTSSDGYGKRGQMKPSVESYSEDDESKFCSYGQYPADLAHKIHSAN
notes: adenomatous polyposis coli (APC), Mus musculus, NCBI AAB59632.1, ARM domain residues 338 to 1010, without expression tags; also called APC ARM domain; source: E. coli BL21 (DE3), purified; E. coli lysate in the pull-down

Experiments:
Details in all cases: both partners purified
[1] = target: T1, KIF3B C-terminal region (BCT), residues …; assay: cryo-EM structure; ABK complex (KIF3A 481-701, KIF3B 475-747, KAP3 1-693), 0.75 mg/ml, single-particle, two maps
[2] = target: B1; assay: cryo-EM structure; ABK-APCARM complex, 0.75 mg/ml and 0.375 mg/ml (tilted stage 30° and 40°), single-particle, merged datasets
[3] = target: T2, KIF3A/B/KAP3 cargo-binding domain complex (ABK), wild type (Mus musculus, UniProt P28741 481-701; Q61771 475-747; P70188-1 1-693); assay: SPR; Biacore T200; APCARM immobilised on CM5 chip at around 200 RU by amine coupling; kinesin-2 complexes injected at 6.25 to 50 nM, 30 μl/min, 15°C; 20 mM Hepes pH 8.0, 150 mM NaCl, 1 mM dithiothreitol, 0.005% Tween 20; KD from Scatchard plot analysis
T2 construct: KIF3A, Mus musculus, NCBI NP_032469.2, C-terminal region residues 481 to 701 (ACT); KIF3B, Mus musculus, NCBI NP_032470.3, C-terminal region residues 475 to 747 (BCT); KAP3A, Mus musculus, NCBI NP_001292572.1, residues 1 to 693; The His tag is named on the complexes of the SPR experiment; also called ABK (WT); KIF3A/B tail/KAP3 complex; source: E. coli BL21 (DE3), reconstituted and purified (size …)
T2 sequence (P70188 1-693, one chain of several): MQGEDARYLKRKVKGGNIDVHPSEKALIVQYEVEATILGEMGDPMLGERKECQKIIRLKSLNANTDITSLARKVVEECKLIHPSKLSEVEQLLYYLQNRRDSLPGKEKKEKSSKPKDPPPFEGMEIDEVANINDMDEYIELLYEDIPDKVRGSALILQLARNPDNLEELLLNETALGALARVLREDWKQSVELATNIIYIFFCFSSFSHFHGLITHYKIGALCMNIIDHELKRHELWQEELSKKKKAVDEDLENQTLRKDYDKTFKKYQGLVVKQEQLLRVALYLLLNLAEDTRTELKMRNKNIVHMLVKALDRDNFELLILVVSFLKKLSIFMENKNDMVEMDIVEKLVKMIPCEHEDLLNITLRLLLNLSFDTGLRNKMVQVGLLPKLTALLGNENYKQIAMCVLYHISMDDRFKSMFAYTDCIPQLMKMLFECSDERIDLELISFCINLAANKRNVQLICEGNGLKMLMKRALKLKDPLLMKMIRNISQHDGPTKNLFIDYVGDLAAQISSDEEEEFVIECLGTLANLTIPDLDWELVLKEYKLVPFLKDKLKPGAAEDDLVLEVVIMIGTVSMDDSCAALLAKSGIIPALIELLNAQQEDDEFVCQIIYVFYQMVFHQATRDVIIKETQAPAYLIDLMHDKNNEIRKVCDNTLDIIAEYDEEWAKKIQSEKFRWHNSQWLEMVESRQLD

Row | binding result [1] | binding result [2] | Kd [3] [nM] | Binder
1 | binds | binds | – | KIF3A C-terminal region (ACT), residues 481 to 701 (domain or fragment, Mus musculus, UniProt P28741 481-701, looked up, KIF3A, Mus musculus, NCBI NP_032469.2, C-terminal region residues 481 to 701 (ACT); also called KIF3A tail; source: E. coli BL21 (DE3), coexpressed with the KIF3B tail from pETDuet-1, purified within the reconstituted complex) VIVGGVDLLAKAEEQEKLLEESNMELEERRRRAEQLRKELEEKEQERLDIEEKYTSLQEEAQGKTKKLKKVWTMLMAAKSEMADLQQEHQREIEGLLENIRQLSRELRLQMLIIDNFIPQDYQEMIENYVHWNEDIGEWQLKCVAYTGNNMRKQTPVPDKKERDPFEVDLSHVYLAYTEESLRQSLMKLERPRTSKGKARPKMGRRKRSAKPETVIDSLLQ
2 | – | – | 34.7 ± 0.6 | B1
